Patent publication US20200384079A1, “Compositions of Fibroblast Growth Factor LIgands and Methods of Treating Patients Undergoing Ischemia-Reperfusion Therapy” (University of Cincinnati, priority 2017, published 2020)
Entries after “also recorded” stand apart in the source; their conditions may differ.

Legend:
[1] = Blood clotting time (tail nick); type: in vivo, rat; details: for Clotting time: 15 mins post treatment, single agent; for blood clotting time post-treatment (in words): baseline vs 15 minutes after drug treatment; for effect on anticoagulant activity of heparin (in words): co-administered with unfractionated heparin
Protocol: In sets of experiments, blood clotting time was detected at baseline and 15 minutes after drug treatment. In brief, a nick 1-2 mm depth was made at 5 cm and 3 cm of the proximal tail for baseline and post-drug blood clotting time, respectively; the tail nick was blotted with 4×4 gauze every 15 seconds until bleeding totally stopped, and blood clotting time was recorded from the onset of bleeding until it stopped.
Heparan sulfate proteoglycans or heparin regulates the bioavailability of FGFs. In order to develop a “cardioprotective” FGF as a therapeutic against ischemic heart disease, it was necessary to elucidate the efficacy of these cardiac FGFs in the presence of heparin treatment. Therefore, native rhFGFs (FGF 1, 2, 4, or 5) or vehicle are infused intravenously (at dose indicated above) in conjunction with unfractionated (12 units/kg/hr, i.v.) or low molecular weight heparin (enoxaparin 1 mg·kg, s.c.) during the first 15 minutes of reperfusion (FIG. 12A), and post-ischemic recovery of cardiac function and the degree of myocardial infarction is assessed. […] Unfractionated or low molecular weight heparin is administered alone during early reperfusion to elucidate the cardioprotective effects of heparins against IR injury. Whether FGF administration alters heparin activity is evaluated. To assess this potential interaction, activated clotting time (ACT) is assessed in vehicle-treated or FGF-treated groups in the absence or presence of heparin co-administration. Baseline and 15 minute post-drug treatment ACT is determined. It has been established that a heparin response occurs within 1 minute after an intravenous dose in humans and that no more time is required to achieve a predicted ACT.

[2] = system: FGFR1; experiment: FGFR1 activation (phosphorylation) in left ventricle, immunoblot; set-up: species or system rat; details: in vivo, after 15 minutes of treatment
Protocol: One-half of each snap-frozen heart was powdered and homogenized in protein extraction buffer as previously described by our laboratory. For FGFR1, 150 μg of total protein were loaded onto a 8% SDS-PAGE gel, for ERK1/2 activation, 20 μg of whole cell protein homogenate was loaded onto a 15% SDS-PAGE gel, and for PKCα and PKCδ, […] of whole cell protein homogenate was loaded onto a 10% SDS-PAGE gel and then transferred to nitrocellulose membrane. 0.1% Ponceau S in 5% acetic acid was used to examine the transfer efficiency and loading equality as described previously 43. Membranes were blocked with 5% dry milk and then incubated with primary antibody against phospho-FGFR1 (Y-654, 1:500, Cell Signaling), phospho-ERK1/2 (1:1000, Cell Signaling) or phospho-PKCα (1:500, Santa Cruz) or phospho-PKCδ (1:500, Santa Cruz) followed by incubation with HRP-conjugated secondary goat anti-rabbit antibody (1:3000, Santa Cruz Biotechnology). […]
Construction of his-tagged native and heparin-binding modified rhFGFs as well as their expression and purification is performed as previously described using his-tagged expression vectors and nickel-nitrilotriacetic acid resin columns. […] His-tagged FGFs are detected in solid organs by ELISA (FIG. 14) both for FGF and histidine (data not shown), and immunoprecipitation (IP) followed by immunoblot and in plasma by ELISA as described previously. […]

Molecule | Clotting time [1] | blood clotting time post-treatment (in words) [1] | effect on anticoagulant activity of heparin (in words) [1] | FGFR1 activation (phosphorylation, Y-654) in left ventricle (in words) [2]
FGF1: native recombinant human fibroblast growth factor 1 | 15 mins post rhFGF1 treatment: 144 +/− 21 sec (n = 7) | no significant difference in blood clotting time | does not alter the desired anticoagulant activity of heparin; also recorded: did not alter heparin's anticoagulant properties | elevated
FGF1^ΔHBS: FGF1 mutant carrying the K127D/K128Q/K133V triple mutation in its HS-binding region; reduced heparin-binding affinity (protein) MAEGEITTFTALTEKFNLPPGNYKKPKLLYCSNGGHFLRILPDGTVDGTRDRSDQHIQLQLSAESVGEVYIKSTETGQYLAMDTDGLLYGSQTPNEECLFLERLEENHYNTYISKKHAEKNWFVGLDQNGSCVRGPRTHYGQKAILFLPLPVSSD | 15 mins post rhFGF^ΔHBS treatment: 169 +/− 10 sec (n = 10) | no significant difference in blood clotting time | did not alter heparin's anticoagulant properties | elevated
